Measured values taken from patent publication US20230242586A1, “RAS INHIBITORS AND USES THEREOF” (The Regents of the University of California, priority 2020, published 2023).
Ends that are not written are not given here.

Biological target: biotinylated wildtype K-Ras·GppNHp (His-Avi-TEV-KRAS (wildtype))
Assay: TR-FRET K-Ras(wildtype) + Raf1-RBD
Conditions: chains peptide; modification not given; biotin on the Avi tag (co-expressed BirA)

IC50: > 100 µM
Binder: YFVNFRNFRTFRCG (also: cyclic, ring closure not given here) [KD2]
